From patent US20220143024A1, “METHODS OF USING IMIPRIDONES” (Board of Regents, The University of Texas System, priority 2019, published 2022)

Tests used:
Assay in all cases: BioID-MS
NADK2 (human) = NADK2 (human) (UniProt Q4G0N4)
IDH3A (human) = IDH3A (human) (UniProt P50213)
NDUFS7 (human) = NDUFS7 (human) (UniProt O75251)
QRSL1 (human) = QRSL1 (human) (UniProt Q9H0R6)
MRPL54 (human) = MRPL54 (human) (UniProt Q6P161)
MRPL46 (human) = MRPL46 (human) (UniProt Q9H2W6)
VWA8 (human) = VWA8 (human) (UniProt A3KMH1)
HSPE1 (human) = HSPE1 (human) (UniProt P61604)
FASTKD2 (human) = FASTKD2 (human) (UniProt Q9NYY8)
NDUFAF7 (human) = NDUFAF7 (human) (UniProt Q7L592)
COX5B (human) = COX5B (human) (UniProt P10606)
Chain of COX5B (human) (P10606 32-129 limits assumed): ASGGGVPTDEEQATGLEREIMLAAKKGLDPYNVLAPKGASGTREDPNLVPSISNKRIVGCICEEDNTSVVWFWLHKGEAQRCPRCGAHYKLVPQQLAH

NDUFA12 (human) = NDUFA12 (human) (UniProt Q9UI09)
IBA57 (human) = IBA57 (human) (UniProt Q5T440)
Chain of IBA57 (human) (Q5T440 40-356 limits assumed): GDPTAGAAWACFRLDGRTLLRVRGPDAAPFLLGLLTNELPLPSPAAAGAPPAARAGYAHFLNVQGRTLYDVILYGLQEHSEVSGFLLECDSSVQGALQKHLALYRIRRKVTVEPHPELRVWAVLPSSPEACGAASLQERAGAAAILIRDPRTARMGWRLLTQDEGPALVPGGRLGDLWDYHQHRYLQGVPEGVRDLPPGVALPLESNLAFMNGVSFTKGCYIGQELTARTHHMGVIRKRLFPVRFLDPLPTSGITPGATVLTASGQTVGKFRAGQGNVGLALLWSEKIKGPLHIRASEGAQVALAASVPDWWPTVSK

LYRM4 (human) = LYRM4 (human) (UniProt Q9HD34)
RTN4IP1 (human) = RTN4IP1 (human) (UniProt Q8WWV3)
NDUFA6 (human) = NDUFA6 (human) (UniProt P56556)
IDE (human) = IDE (human) (UniProt P14735)
MRM3 (human) = MRM3 (human) (UniProt Q9HC36)
PET112 (human) = PET112 (human) (UniProt O75879)
NDUFV2 (human) = NDUFV2 (human) (UniProt P19404)
GPT2 (human) = GPT2 (human) (UniProt Q8TD30)
NDUFS2 (human) = NDUFS2 (human) (UniProt O75306)
Chain of NDUFS2 (human) (O75306 34-463 limits assumed): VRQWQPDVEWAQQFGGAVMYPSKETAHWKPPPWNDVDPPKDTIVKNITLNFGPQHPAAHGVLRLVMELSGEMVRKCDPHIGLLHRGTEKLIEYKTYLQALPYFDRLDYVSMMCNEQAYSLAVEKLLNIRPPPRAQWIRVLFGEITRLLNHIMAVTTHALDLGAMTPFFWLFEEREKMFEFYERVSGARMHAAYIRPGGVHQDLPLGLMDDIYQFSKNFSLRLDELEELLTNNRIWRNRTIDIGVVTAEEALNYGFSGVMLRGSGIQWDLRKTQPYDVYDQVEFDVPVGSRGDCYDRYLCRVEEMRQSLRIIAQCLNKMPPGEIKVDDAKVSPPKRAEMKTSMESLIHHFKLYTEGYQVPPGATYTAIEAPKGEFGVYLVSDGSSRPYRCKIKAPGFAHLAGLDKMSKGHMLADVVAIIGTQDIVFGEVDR

VARS2 (human) = VARS2 (human) (UniProt Q5ST30)
GBAS (human) = GBAS (human) (UniProt O75323)
Chain of GBAS (human) (O75323 24-286 limits assumed): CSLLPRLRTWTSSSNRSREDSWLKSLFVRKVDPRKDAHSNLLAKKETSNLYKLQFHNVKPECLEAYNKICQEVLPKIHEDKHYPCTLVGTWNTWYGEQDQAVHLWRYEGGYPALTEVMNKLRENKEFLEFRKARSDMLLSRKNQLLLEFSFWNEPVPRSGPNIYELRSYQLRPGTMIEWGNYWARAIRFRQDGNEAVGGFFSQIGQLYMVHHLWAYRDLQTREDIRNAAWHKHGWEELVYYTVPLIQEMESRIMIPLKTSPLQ

BCS1L (human) = BCS1L (human) (UniProt Q9Y276)
MRPL12 (human) = MRPL12 (human) (UniProt P52815)
MRPL55 (human) = MRPL55 (human) (UniProt Q7Z7F7)
MRPL44 (human) = MRPL44 (human) (UniProt Q9H9J2)
NUDT1 (human) = NUDT1 (human) (UniProt P36639)
MRPS25 (human) = MRPS25 (human) (UniProt P82663)
ALDH1L2 (human) = ALDH1L2 (human) (UniProt Q3SY69)
ALDH4A1 (human) = ALDH4A1 (human) (UniProt P30038)
Chain of ALDH4A1 (human) (P30038 25-563 limits assumed): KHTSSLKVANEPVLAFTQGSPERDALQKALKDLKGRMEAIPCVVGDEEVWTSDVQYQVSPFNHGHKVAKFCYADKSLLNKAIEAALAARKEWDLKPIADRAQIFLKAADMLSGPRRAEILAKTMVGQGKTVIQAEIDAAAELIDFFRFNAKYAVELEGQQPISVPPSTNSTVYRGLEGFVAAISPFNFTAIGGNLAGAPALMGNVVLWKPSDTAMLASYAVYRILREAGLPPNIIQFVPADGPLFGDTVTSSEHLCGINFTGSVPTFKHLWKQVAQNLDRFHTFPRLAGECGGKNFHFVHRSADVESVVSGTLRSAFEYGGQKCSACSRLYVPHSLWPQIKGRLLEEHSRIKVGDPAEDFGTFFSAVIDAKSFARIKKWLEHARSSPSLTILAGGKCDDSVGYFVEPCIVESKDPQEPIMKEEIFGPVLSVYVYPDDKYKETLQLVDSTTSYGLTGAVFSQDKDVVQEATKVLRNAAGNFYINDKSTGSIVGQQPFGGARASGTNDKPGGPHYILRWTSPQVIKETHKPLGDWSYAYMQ

GLRX5 (human) = GLRX5 (human) (UniProt Q86SX6)
SUCLG1 (human) = SUCLG1 (human) (UniProt P53597)
ADCK3 (human) = ADCK3 (human) (UniProt Q8NI60)
Chain of ADCK3 (human) (Q8NI60 163-647 limits assumed): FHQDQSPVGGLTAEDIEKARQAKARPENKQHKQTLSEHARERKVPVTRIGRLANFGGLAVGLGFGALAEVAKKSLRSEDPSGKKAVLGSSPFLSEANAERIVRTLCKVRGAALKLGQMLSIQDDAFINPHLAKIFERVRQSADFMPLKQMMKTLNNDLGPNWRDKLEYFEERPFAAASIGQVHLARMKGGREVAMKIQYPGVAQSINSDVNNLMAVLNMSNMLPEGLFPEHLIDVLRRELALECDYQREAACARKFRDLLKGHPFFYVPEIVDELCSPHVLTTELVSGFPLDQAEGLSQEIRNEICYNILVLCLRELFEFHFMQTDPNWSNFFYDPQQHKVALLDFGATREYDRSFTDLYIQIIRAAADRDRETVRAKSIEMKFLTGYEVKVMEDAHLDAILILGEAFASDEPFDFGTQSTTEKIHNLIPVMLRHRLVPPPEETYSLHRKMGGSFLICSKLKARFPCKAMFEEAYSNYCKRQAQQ

CLIC4 (human) = CLIC4 (human) (UniProt Q9Y696)
FECH (human) = FECH (human) (UniProt P22830)
MRPL14 (human) = MRPL14 (human) (UniProt Q6P1L8)
ATPAF1 (human) = ATPAF1 (human) (UniProt Q5TC12)
PITRM1 (human) = PITRM1 (human) (UniProt Q5JRX3)
SDHB (human) = SDHB (human) (UniProt P21912)
Chain of SDHB (human) (P21912 29-280 limits assumed): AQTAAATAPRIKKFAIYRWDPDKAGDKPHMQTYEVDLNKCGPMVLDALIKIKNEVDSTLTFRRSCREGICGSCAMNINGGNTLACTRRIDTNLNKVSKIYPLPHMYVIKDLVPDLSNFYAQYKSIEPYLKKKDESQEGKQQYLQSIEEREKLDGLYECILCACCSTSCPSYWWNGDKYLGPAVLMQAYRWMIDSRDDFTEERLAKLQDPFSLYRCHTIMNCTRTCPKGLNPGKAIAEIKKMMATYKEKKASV

PRKCA (human) = PRKCA (human) (UniProt P17252)
MRPL10 (human) = MRPL10 (human) (UniProt Q7Z7H8)
ALDH6A1 (human) = ALDH6A1 (human) (UniProt Q02252)
Chain of ALDH6A1 (human) (Q02252 34-535 limits assumed): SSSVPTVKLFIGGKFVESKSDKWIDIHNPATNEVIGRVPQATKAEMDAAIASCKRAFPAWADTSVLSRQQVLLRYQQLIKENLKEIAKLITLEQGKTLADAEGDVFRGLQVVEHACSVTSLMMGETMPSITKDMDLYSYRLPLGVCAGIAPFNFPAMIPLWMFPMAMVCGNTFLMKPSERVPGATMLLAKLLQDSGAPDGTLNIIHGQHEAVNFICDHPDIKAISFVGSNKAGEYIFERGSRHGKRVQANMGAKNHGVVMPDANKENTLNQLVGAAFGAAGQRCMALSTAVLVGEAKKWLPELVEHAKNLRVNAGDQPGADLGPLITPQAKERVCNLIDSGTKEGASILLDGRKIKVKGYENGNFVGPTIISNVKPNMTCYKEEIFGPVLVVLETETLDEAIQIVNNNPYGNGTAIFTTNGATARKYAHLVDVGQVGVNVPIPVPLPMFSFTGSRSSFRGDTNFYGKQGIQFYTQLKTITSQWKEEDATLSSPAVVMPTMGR

PTPMT1 (human) = PTPMT1 (human) (UniProt Q8WUK0)
Chain of PTPMT1 (human) (Q8WUK0 28-201 limits assumed): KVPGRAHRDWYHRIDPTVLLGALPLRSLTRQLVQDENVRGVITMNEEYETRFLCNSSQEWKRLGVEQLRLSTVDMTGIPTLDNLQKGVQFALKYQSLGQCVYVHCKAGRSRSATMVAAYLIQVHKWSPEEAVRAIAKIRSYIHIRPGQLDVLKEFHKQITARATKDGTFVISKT

MRPS28 (human) = MRPS28 (human) (UniProt Q9Y2Q9)
NDUFAF5 (human) = NDUFAF5 (human) (UniProt Q5TEU4)
Chain of NDUFAF5 (human) (Q5TEU4 37-345 limits assumed): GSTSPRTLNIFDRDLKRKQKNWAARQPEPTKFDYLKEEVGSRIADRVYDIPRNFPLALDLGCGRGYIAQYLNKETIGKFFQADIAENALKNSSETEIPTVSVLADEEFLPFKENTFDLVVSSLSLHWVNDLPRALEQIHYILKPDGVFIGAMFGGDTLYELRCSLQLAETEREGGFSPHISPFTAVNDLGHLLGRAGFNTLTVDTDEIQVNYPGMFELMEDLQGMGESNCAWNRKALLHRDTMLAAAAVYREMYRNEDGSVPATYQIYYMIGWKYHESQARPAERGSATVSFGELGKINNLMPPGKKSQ

SDHA (human) = SDHA (human) (UniProt P31040)
MTPAP (human) = MTPAP (human) (UniProt Q9NVV4)
Chain of MTPAP (human) (Q9NVV4 38-582 limits assumed): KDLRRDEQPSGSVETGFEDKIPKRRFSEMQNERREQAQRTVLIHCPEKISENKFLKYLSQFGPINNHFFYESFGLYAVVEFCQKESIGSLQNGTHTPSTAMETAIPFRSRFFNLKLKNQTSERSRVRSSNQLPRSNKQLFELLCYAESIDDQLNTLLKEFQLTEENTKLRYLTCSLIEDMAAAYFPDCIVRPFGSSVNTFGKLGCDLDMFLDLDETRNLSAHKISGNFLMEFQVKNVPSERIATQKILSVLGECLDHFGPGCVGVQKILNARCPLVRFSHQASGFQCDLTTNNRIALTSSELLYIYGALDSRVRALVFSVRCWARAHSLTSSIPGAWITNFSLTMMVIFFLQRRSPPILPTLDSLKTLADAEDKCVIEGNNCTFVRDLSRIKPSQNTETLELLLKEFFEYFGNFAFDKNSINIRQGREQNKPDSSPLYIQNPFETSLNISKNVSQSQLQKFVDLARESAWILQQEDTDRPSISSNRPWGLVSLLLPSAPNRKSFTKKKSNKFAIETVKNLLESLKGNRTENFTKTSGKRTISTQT

MRPL47 (human) = MRPL47 (human) (UniProt Q9HD33)
NME4 (human) = NME4 (human) (UniProt O00746)
NMNAT3 (human) = NMNAT3 (human) (UniProt Q96T66)
MRPL45 (human) = MRPL45 (human) (UniProt Q9BRJ2)
GTPBP10 (human) = GTPBP10 (human) (UniProt A4D1E9)
Chain of GTPBP10 (human) (A4D1E9 whole entry): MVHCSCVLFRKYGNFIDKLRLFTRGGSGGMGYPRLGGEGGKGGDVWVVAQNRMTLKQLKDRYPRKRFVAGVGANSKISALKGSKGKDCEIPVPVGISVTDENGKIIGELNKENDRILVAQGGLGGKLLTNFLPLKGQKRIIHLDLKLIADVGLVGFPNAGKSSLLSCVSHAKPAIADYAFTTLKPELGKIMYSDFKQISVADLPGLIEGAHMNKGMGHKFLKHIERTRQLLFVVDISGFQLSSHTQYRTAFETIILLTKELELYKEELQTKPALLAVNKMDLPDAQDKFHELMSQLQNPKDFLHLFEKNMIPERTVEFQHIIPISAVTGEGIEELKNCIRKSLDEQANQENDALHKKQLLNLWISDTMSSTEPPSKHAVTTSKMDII

IDI1 (human) = IDI1 (human) (UniProt Q13907)
SLC27A2 (human) = SLC27A2 (human) (UniProt O14975)
Chain of SLC27A2 (human) (O14975 whole entry): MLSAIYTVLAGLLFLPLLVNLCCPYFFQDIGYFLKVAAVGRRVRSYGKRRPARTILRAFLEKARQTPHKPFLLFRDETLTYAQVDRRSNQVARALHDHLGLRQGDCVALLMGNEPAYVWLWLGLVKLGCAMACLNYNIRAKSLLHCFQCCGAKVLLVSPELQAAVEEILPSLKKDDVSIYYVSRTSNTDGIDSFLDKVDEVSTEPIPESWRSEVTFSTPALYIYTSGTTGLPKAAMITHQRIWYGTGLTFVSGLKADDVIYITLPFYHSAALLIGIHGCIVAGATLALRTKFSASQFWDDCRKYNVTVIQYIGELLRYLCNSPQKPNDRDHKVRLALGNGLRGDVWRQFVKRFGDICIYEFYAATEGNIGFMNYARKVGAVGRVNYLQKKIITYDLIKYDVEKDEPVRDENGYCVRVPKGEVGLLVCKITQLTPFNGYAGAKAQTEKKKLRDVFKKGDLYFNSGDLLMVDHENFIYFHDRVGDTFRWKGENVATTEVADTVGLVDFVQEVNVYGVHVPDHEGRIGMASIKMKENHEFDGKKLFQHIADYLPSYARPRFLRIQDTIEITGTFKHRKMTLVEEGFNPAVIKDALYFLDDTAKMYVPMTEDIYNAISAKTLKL

MPST (human) = MPST (human) (UniProt P25325)
ALDH2 (human) = ALDH2 (human) (UniProt P05091)

Log2 Fold change (vs control) (NADK2 (human)): 0.06 log2 | Log2 Fold change (vs control) (IDH3A (human)): -0.06 log2 | Log2 Fold change (vs control) (NDUFS7 (human)): -0.08 log2 | Log2 Fold change (vs control) (QRSL1 (human)): -0.01 log2 | Log2 Fold change (vs control) (MRPL54 (human)): -3 log2 | Log2 Fold change (vs control) (MRPL46 (human)): -0.28 log2 | Log2 Fold change (vs control) (VWA8 (human)): 1.02 log2 | Log2 Fold change (vs control) (HSPE1 (human)): 0.92 log2 | Log2 Fold change (vs control) (FASTKD2 (human)): 0.71 log2 | Log2 Fold change (vs control) (NDUFAF7 (human)): 0.04 log2 | Log2 Fold change (vs control) (COX5B (human)): 0.46 log2 | Log2 Fold change (vs control) (NDUFA12 (human)): -1.02 log2 | Log2 Fold change (vs control) (IBA57 (human)): 1.65 log2 | Log2 Fold change (vs control) (LYRM4 (human)): 0.52 log2 | Log2 Fold change (vs control) (RTN4IP1 (human)): -0.52 log2 | Log2 Fold change (vs control) (NDUFA6 (human)): 0.44 log2 | Log2 Fold change (vs control) (IDE (human)): -0.15 log2 | Log2 Fold change (vs control) (MRM3 (human)): 0.14 log2 | Log2 Fold change (vs control) (PET112 (human)): -0.3 log2 | Log2 Fold change (vs control) (NDUFV2 (human)): -0.47 log2 | Log2 Fold change (vs control) (NDUFS2 (human)): 0.1 log2 | Log2 Fold change (vs control) (VARS2 (human)): 0.76 log2 | Log2 Fold change (vs control) (GBAS (human)): -0.38 log2 | Log2 Fold change (vs control) (BCS1L (human)): 0.47 log2 | Log2 Fold change (vs control) (MRPL12 (human)): 0.21 log2 | Log2 Fold change (vs control) (MRPL55 (human)): -0.2 log2 | Log2 Fold change (vs control) (MRPL44 (human)): 1.13 log2 | Log2 Fold change (vs control) (NUDT1 (human)): -3.17 log2 | Log2 Fold change (vs control) (MRPS25 (human)): 0.62 log2 | Log2 Fold change (vs control) (ALDH1L2 (human)): -0.69 log2 | Log2 Fold change (vs control) (ALDH4A1 (human)): -0.81 log2 | Log2 Fold change (vs control) (GLRX5 (human)): -0.26 log2 | Log2 Fold change (vs control) (SUCLG1 (human)): -0.28 log2 | Log2 Fold change (vs control) (ADCK3 (human)): -0.3 log2 | Log2 Fold change (vs control) (CLIC4 (human)): -2.81 log2 | Log2 Fold change (vs control) (FECH (human)): -0.68 log2 | Log2 Fold change (vs control) (MRPL14 (human)): 0 log2 | Log2 Fold change (vs control) (ATPAF1 (human)): 0.59 log2 | Log2 Fold change (vs control) (PITRM1 (human)): -0.16 log2 | Log2 Fold change (vs control) (SDHB (human)): -0.6 log2 | Log2 Fold change (vs control) (PRKCA (human)): -3.58 log2 | Log2 Fold change (vs control) (MRPL10 (human)): -0.21 log2 | Log2 Fold change (vs control) (ALDH6A1 (human)): -1.22 log2 | Log2 Fold change (vs control) (PTPMT1 (human)): -0.04 log2 | Log2 Fold change (vs control) (MRPS28 (human)): -0.49 log2 | Log2 Fold change (vs control) (NDUFAF5 (human)): -0.47 log2 | Log2 Fold change (vs control) (SDHA (human)): 0.34 log2 | Log2 Fold change (vs control) (MTPAP (human)): -0.78 log2 | Log2 Fold change (vs control) (MRPL47 (human)): -1.94 log2 | Log2 Fold change (vs control) (NME4 (human)): -0.42 log2 | Log2 Fold change (vs control) (NMNAT3 (human)): -4 log2 | Log2 Fold change (vs control) (MRPL45 (human)): -0.29 log2 | Log2 Fold change (vs control) (GTPBP10 (human)): -0.91 log2 | Log2 Fold change (vs control) (IDI1 (human)): 1.28 log2 | Log2 Fold change (vs control) (SLC27A2 (human)): -3.81 log2 | Log2 Fold change (vs control) (MPST (human)): -1.29 log2 | Log2 Fold change (vs control) (ALDH2 (human)): -0.18 log2
Substance: FlagBirA-ClpP (Y118A) (from UniProt P06709 1-321; Q16740 57-277) (enzyme)
Log2 Fold change (vs control) (GPT2 (human)): 0.21 log2
